The record followed here is patent US20090036365A1.

This experiment addresses human plasmin (human) (UniProt P00747). Kind of experiment: display phage binding to immobilised protease; this row is the reference taken as unit.

human plasmin (human), sequence (P00747 97-810 limits assumed): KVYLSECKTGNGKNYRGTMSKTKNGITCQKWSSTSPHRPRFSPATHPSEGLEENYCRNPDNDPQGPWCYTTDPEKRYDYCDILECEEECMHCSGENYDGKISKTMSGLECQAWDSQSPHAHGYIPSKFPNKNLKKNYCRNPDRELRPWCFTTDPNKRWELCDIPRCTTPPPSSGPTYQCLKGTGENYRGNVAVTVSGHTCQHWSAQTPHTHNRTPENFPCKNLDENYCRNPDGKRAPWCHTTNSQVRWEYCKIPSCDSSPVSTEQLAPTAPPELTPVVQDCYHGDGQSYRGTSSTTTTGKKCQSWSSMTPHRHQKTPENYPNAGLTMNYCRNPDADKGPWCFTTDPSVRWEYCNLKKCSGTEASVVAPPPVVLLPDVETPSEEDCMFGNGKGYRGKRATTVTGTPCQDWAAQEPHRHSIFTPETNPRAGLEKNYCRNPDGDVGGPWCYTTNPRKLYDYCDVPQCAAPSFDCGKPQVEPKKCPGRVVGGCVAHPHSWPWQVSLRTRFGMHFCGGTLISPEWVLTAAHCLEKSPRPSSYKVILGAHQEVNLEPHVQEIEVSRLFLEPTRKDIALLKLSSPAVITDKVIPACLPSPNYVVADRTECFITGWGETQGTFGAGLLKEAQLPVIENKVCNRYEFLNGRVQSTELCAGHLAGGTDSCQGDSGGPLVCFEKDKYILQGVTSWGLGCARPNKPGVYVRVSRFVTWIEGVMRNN

On to “LACI-K1 (first Kunitz domain of human lipoprotein-associated coagulation inhibitor) (from UniProt P10646 50-107)”, for which the relative binding (LACI-K1 phage = unit) (fold of LACI-K1 phage) was determined as 1.
